This note sets out measurements from article PMC9278117.

The target in one assay is CB6 monoclonal antibody. As to the kind of experiment: BLI. On the technique in general: BLI is a label-free optical method that tracks binding on a fibre tip over time.
In a further assay the target is 4A8 monoclonal antibody. Briefly: BLI.

“SARS-CoV-2 S1-SpyTag monomer (from UniProt P0DTC2 16-685) (domain or fragment)”: the dissociation constant (Kd) (usually the constant that tells how readily two partners part at equilibrium) in the assay with CB6 monoclonal antibody turned out to be 5.48 nM; with 4A8 monoclonal antibody it was 34.1 nM.
